Measured values: the supplement of paper PMC11246515
± gives the standard deviation of the averaged measurements.

Assay: total protein half-life in vivo (active degradation + dilution); higher = more stable protein
[1] = E. coli NCM3722 delta-clpP delta-lon delta-hslV, growth: N-lim chemostat, doubling time 6 h
[2] = E. coli NCM3722 delta-clpP, growth: N-lim chemostat, doubling time 6 h
[3] = E. coli NCM3722 delta-lon, growth: N-lim chemostat, doubling time 6 h
[4] = E. coli NCM3722 delta-smpB, growth: N-lim chemostat, doubling time 6 h
[5] = wild type E. coli NCM3722, growth: C-lim chemostat, doubling time 3 h
[6] = wild type E. coli NCM3722, growth: C-lim chemostat, doubling time 6 h
[7] = wild type E. coli NCM3722, growth: C-lim chemostat, doubling time 12 h
[8] = wild type E. coli NCM3722, growth: N-lim chemostat, doubling time 6 h
[9] = wild type E. coli NCM3722, growth: N-lim chemostat, doubling time 12 h
[10] = wild type E. coli NCM3722, growth: P-lim chemostat, doubling time 6 h
[11] = wild type E. coli NCM3722, growth: P-lim chemostat, doubling time 12 h
[12] = E. coli NCM3722 delta-hslV, growth: N-lim chemostat, doubling time 6 h

Row | Sequence | total protein half-life in vivo [1] [h] | total protein half-life in vivo [2] [h] | total protein half-life in vivo [3] [h] | total protein half-life in vivo [4] [h] | total protein half-life in vivo [5] [h] | total protein half-life in vivo [6] [h] | total protein half-life in vivo [7] [h] | total protein half-life in vivo [8] [h] | total protein half-life in vivo [9] [h] | total protein half-life in vivo [10] [h] | total protein half-life in vivo [11] [h] | total protein half-life in vivo [12] [h]
1 | MVAENQPGHIDQIKQTNAGAVYRLIDQLGPVSRIDLSRLAQLAPASITKIVREMLEAHLVQELEIKEAGNRGRPAVGLVVETEAWHYLSLRISRGEIFLALRDLSSKLVVEESQELALKDDLPLLDRIISHIDQFFIRHQKKLERLTSIAITLPGIIDTENGIVHRMPFYEDVKEMPLGEALEQHTGVPVYIQHDISAWTMAEALFGASRGARDVIQVVIDHNVGAGVITDGHLLHAGSSSLVEIGHTQVDPYGKRCYCGNHGCLETIASVDSILELAQLRLNQSMSSMLHGQPLTVDSLCQAALRGDLLAKDIITGVGAHVGRILAIMVNLFNPQKILIGSPLSKAADILFPVISDSIRQQALPAYSQHISVESTQFSNQGTMAGAALVKDAMYNGSLLIRLLQG | 5.81 ± 0.28 | 6.92 ± 0.73 | 6.12 ± 0.57 | 6.02 ± 0.33 | 2.89 ± 0.014 | 5.92 ± 0.69 | 9.65 ± 0.51 | 5.85 ± 0.26 | 12.8 ± 0.51 | 6.19 ± 1 | 12.4 ± 0.56 | 
2 | MVAPIPAKRGRKPAVATAPATGQVQSLTRGLKLLEWIAESNGSVALTELAQQAGLPNSTTHRLLTTMQQQGFVRQVGELGHWAIGAHAFMVGSSFLQSRNLLAIVHPILRNLMEESGETVNMAVLDQSDHEAIIIDQVQCTHLMRMSAPIGGKLPMHASGAGKAFLAQLSEEQVTKLLHRKGLHAYTHATLVSPVHLKEDLAQTRKRGYSFDDEEHALGLRCLAACIFDEHREPFAAISISGPISRITDDRVTEFGAMVIKAAKEVTLAYGGMR | 5.87 ± 0.33 | 5.93 ± 0.11 | 5.45 ± 0.43 | 5.348 ± 0.028 | 2.89 ± 0.17 | 5.43 ± 0.46 | 9.91 ± 0.97 | 5.51 ± 0.18 | 9.96 ± 1.1 | 4.91 ± 0.12 | 9.56 ± 0.21 | 5.33 ± 0.38
3 | MVDKRESYTKEDLLASGRGELFGAKGPQLPAPNMLMMDRVVKMTETGGNFDKGYVEAELDINPDLWFFGCHFIGDPVMPGCLGLDAMWQLVGFYLGWLGGEGKGRALGVGEVKFTGQVLPTAKKVTYRIHFKRIVNRRLIMGLADGEVLVDGRLIYTASDLKVGLFQDTSAF [P0A6Q3] | 4.896 ± 0.032 | 4.99 ± 0.2 | 5.48 ± 0.64 | 5.18 ± 0.13 | 3.03 ± 0.035 | 5.626 ± 0.038 | 11.5 ± 1.6 | 5.0372 ± 0.0034 | 10.1 ± 0.12 | 5.56 ± 0.57 | 12.2 ± 0.94 | 5.5 ± 0.67
4 | MVKLAFPRELRLLTPSQFTFVFQQPQRAGTPQITILGRLNSLGHPRIGLTVAKKNVRRAHERNRIKRLTRESFRLRQHELPAMDFVVVAKKGVADLDNRALSEALEKLWRRHCRLARGS [P0A7Y8] |  | 5.44 | 6.46 ± 0.22 | 3.76 ± 0.17 | 3.11 ± 0.27 | 4.82 ± 0.15 | 8.06 | 3.63 ± 0.43 | 7.32 ± 2.1 | 3.7 | 7.12 ± 0.64 | 4.21
5 | MVKLPPLSLYIHIPWCVQKCPYCDFNSHALKGEVPHDDYVQHLLNDLDNDVAYAQGREVKTIFIGGGTPSLLSGPAMQTLLDGVRARLPLAADAEITMEANPGTVEADRFVDYQRAGVNRISIGVQSFSEEKLKRLGRIHGPQEAKRAAKLASGLGLRSFNLDLMHGLPDQSLEEALGDLRQAIELNPPHLSWYQLTIEPNTLFGSRPPVLPDDDALWDIFEQGHQLLTAAGYQQYETSAYAKPGYQCQHNLNYWRFGDYIGIGCGAHGKVTFPDGRILRTTKTRHPRGFMQGRYLESQRDVEATDKPFEFFMNRFRLLEAAPRVEFIAYTGLCEDVIRPQLDEAIAQGYLTECADYWQITEHGKLFLNSLLELFLAE | 4.14 ± 1.6 | 5.76 ± 2.5 | 4.24 ± 0.52 | 3.734 ± 0.022 | 3.01 ± 0.05 | 4.82 ± 0.96 | 8.1 ± 1.6 | 4.03 ± 0.08 | 6.81 ± 0.47 | 5.41 ± 0.25 | 10.4 ± 0.86 | 4.32 ± 0.36
6 | MVKSQPILRYILRGIPAIAVAVLLSACSANNTAKNMHPETRAVGSETSSLQASQDEFENLVRNVDVKSRIMDQYADWKGVRYRLGGSTKKGIDCSGFVQRTFREQFGLELPRSTYEQQEMGKSVSRSNLRTGDLVLFRAGSTGRHVGIYIGNNQFVHASTSSGVIISSMNEPYWKKRYNEARRVLSRS [P0AFV4] | 2.68 ± 0.98 | 2.09 ± 0.79 | 2.34 ± 0.085 | 2.33 ± 0.45 | 1.02 ± 0.41 | 3.38 ± 0.45 | 7.8 ± 1.4 | 2.19 ± 1.5 | 4.29 ± 1.6 | 3.39 ± 0.15 | 4.64 ± 0.49 | 2.61 ± 1.4
7 | MVKTQRVVITPGEPAGIGPDLVVQLAQREWPVELVVCADATLLTNRAAMLGLPLTLRPYSPNSPAQPQTAGTLTLLPVALRAPVTAGQLAVENGHYVVETLARACDGCLNGEFAALITGPVHKGVINDAGIPFTGHTEFFEERSQAKKVVMMLATEELRVALATTHLPLRDIADAITPALLHEVIAILHHDLRTKFGIAEPRILVCGLNPHAGEGGHMGTEEIDTIIPVLNELRAQGMKLNGPLPADTLFQPKYLDNADAVLAMYHDQGLPVLKYQGFGRGVNITLGLPFIRTSVDHGTALELAGRGKADVGSFITALNLAIKMIVNTQ | 4.27 | 3.54 | 4.45 ± 0.1 | 4.72 ± 0.25 | 2.98 ± 0.15 | 5.541 ± 0.046 | 9.78 ± 0.65 | 4.33 | 7.247 ± 0.038 | 4.67 ± 0.49 | 9.91 ± 0.5 | 3.58
